According to patent US20220251215A1:

B1: NY-ESO CAR-T 24958N VH-VL (protein, part only; not given: scFv linker, hinge, signalling domains, not shown: large carriers)
chain, part: QVQLQESGPGLVKPSQTLSLTCTVSGGSIISDGYYWSWIRQHPGKGLEWIGYVDYSGNTYYNPSLKSRIIMSVDTSKNQFSLKLTSVTAADTAVYFCVREGPLRDAFEIWGQGTMVTVSSDIQMTQSPSSLSASVGDRVTITCRTSQSISRYLNWYQQKPGKAPKLLIFAASSLQSGVPSRFSGSGSGADFTLTISSLQPEDFATYYCQQSYSTPPITFGQGTRLEIK
B2: NY-ESO CAR-T 24958N VL-VH (protein, part only; not given: scFv linker, hinge, signalling domains, not shown: large carriers)
chain, part: DIQMTQSPSSLSASVGDRVTITCRTSQSISRYLNWYQQKPGKAPKLLIFAASSLQSGVPSRFSGSGSGADFTLTISSLQPEDFATYYCQQSYSTPPITFGQGTRLEIKQVQLQESGPGLVKPSQTLSLTCTVSGGSIISDGYYWSWIRQHPGKGLEWIGYVDYSGNTYYNPSLKSRIIMSVDTSKNQFSLKLTSVTAADTAVYFCVREGPLRDAFEIWGQGTMVTVSS
B3: NY-ESO CAR-T 24959N VH-VL (protein, part only; not given: scFv linker, hinge, signalling domains, not shown: large carriers)
chain, part: QLQLLESGPGLVKPSETLSLICTVSGGSIRGSSYYWGWIRQPPEKGLEWIGSIYSSGSTYYNPSLKSRVTISADTSKNQFSLKLSSVTAADTAVYYCARHGGITAVQLEFDPWGQGTLVTVSSDIQMTQSPSSLSASVGDRVTITCQASQDISNYLKWYQQKPGKAPKILIHDASNLEIGVPSRFSGSGAGTDFIFTISSLQPEDIGTYYCQQYDNLPITFGQGTRLEIK
B4: NY-ESO CAR-T 24959N VL-VH (protein, part only; not given: scFv linker, hinge, signalling domains, not shown: large carriers)
chain, part: DIQMTQSPSSLSASVGDRVTITCQASQDISNYLKWYQQKPGKAPKILIHDASNLEIGVPSRFSGSGAGTDFIFTISSLQPEDIGTYYCQQYDNLPITFGQGTRLEIKQLQLLESGPGLVKPSETLSLICTVSGGSIRGSSYYWGWIRQPPEKGLEWIGSIYSSGSTYYNPSLKSRVTISADTSKNQFSLKLSSVTAADTAVYYCARHGGITAVQLEFDPWGQGTLVTVSS

The binders below were run against HLA.A2/hB2M/NY-ESO-1: 157-165 WT on 3T3 cells (human) (UniProt P04439) (assay: cell-based or functional assay).

| Binder | EC50 (#of APC cells), NFAT-luciferase [APC cells] | Max Fold (RLU), NFAT-luciferase [fold] |
| --- | --- | --- |
| B1 | 24500 | 6.7 |
| B2 | 19900 | 6.4 |
| B3 | 14200 | 13.3 |
| B4 | 24000 | 28.6 |

Each binder was assayed against HLA.A2 with NY-ESO-1: 157-165 on IM9 cells (assay: cell-based or functional assay).

| Binder | Max Fold (RLU), NFAT-luciferase [fold] |
| --- | --- |
| B1 | 1 |
| B2 | 0.9 |
| B3 | 1.1 |
| B4 | 0.8 |
